Data reported in the nanobody polyreactivity screen of Harvey et al. (2022).

Test: yeast display, Sf9 membrane polyspecificity reagent, FACS + sequencing; frameworks hold sequencing errors
How it was run: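 Nanobodies came from a synthetic yeast display library in Saccharomyces cerevisiae BJ5465, induced with galactose for 36–48 hours and stained for 1 hour at 4 °C with 10% biotinylated, detergent-solubilized Sf9 membrane reagent. Cells were enriched on streptavidin microbeads and then FACS-sorted, with low and high (top ~1%) gates set on anti-HA fluorescence for expression and streptavidin fluorescence for reagent binding. Each polyreactivity label reflects the gate a clone came from. Genes were amplified by colony PCR, sequenced by MiSeq 2 × 250 and filtered by CDR length.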

Sequence	polyreactivity (PSR sort gate)
QVQLVESGGGLVQAGGSLRLSCAASGSTRYNAMGWYRQAPGKERELVASIRGNAGSTYYADSVKGRFTISRDNAKNTVYLQMNSLKPEDTAVYYCNARYWYRYGGYKPVGGYYWGQGTQVTVSS	high polyreactivity
QVQLVESGGGLVQAGGSLRLSCAASGSTSANYAMGWYRPAPGKERELVAAISGGARTNYADSVKGRFTISRDNAKNTVYLQMNSLKPEDTAVYYCATDAYYYNLLYLFPRYDYWGQGTQVTVSS	low polyreactivity
QVQLVESGGGLVQAGGSLRLSCAASGSTSGPYAMGWYRQAPGKETELVATISWIGDRTYYADSVKGRFTISRDNAKNTIYLQMNSLKPEDTAVYYCNADYRGYANLEGDYWGQGTQVTVSS	low polyreactivity
QVQLVESGGGLVQAGGSLRLSCAASGSTSGSYGMGWYRQAPGKERELVAAIRWSGGRTYYADSVKGRFTISRDNAKNTVYLQMNSLKPEDTAVYYCAKYRYTVAGYNYWGQGTQVTVSS	high polyreactivity
QVQLVESGGGLVQAGGSLRLSCAASGSTSIYYTMGWYRQAPGKERELVAYADSVKGRFTISRDNAKNTVYLQMNRLKPEDTAGYYCAAPRTYYSELTSPYDYWGQGAQVTVSS	low polyreactivity
QVQLVESGGGLVQAGGSLRLSCAASGSTSKSYTMGWYRQAPGKERELVAAISYSGVSTYYADSVKGRFTISRDNAKNTVYLQMNSLKPEDTAVYYCAKRTRKYTVGYYYWGQGTQVTVSS	high polyreactivity
QVQLVESGGGLVQAGGSLRLSCAASGSTSKWYAMGWYRPAPGKERELVAAITKTGGRTYYADSVKGRFTISRDNAKNTVYLQMNSLKPEDTAVYYCAVEYLRGFIVIYDYWGQGTQVTVSS	high polyreactivity
QVQLVESGGGLVQAGGSLRLSCAASGSTSLIYAMGWYRQAPGKERELVARISGSGGSTFYADSVKGRFTISRDNAKNTVFLQMNSLKPEDTAVYYCAAYIRGRRYNWATVGYNYWGQGTQVTVSS	high polyreactivity
QVQLVESGGGLVQAGGSLRLSCAASGSTSPIYAMGWYRQAPGKERELVAAINGVGSTNYADSVKGRFTISRDNAKNTVYLQMNSLKPEDTAVYYCNTRYSPGYQGTEVDYWGQGTQVTVSS	low polyreactivity
QVQLVESGGGLVQAGGSLRLSCAASGSTSQPYAMGWYRQAPGQERELVASITNGGITYYADSVKGRFTISRDNAKNTVYLQMNSLKPEDTAVYYCNTVSYTEFDYWGQGTQVTVSS	low polyreactivity
QVQLVESGGGLVQAGGSLRLSCAASGSTSRGNAMAWYRKSPGKERELVATISQSGGNTFYADSVKGRFTISLDNAKNTVYLQMNSLNPEDTAVYYCAAGRYWFAWYDYWGQGTQVTVSS	high polyreactivity
QVQLVESGGGLVQAGGSLRLSCAASGSTSRLYAMGWYSQAPGKERELVAAIRYSSGTTYYADSVTVRFTISRDNAKNTVYLQMNSLKPEDTAVYYCAAVTIRRYGPAEYNYWGQGTQVTVSS	high polyreactivity
QVQLVESGGGLVQAGGSLRLSCAASGSTSRSYTMGWYRQAPGKEREFVASIRWSGGRTYNADSVKGRFTISRDNAKNTVYLQMNSLKPEDTAVYYCNADYYRLRFRLGWYDYWGQGTQVTVSS	high polyreactivity
QVQLVESGGGLVQAGGSLRLSCAASGSTSRVYAMGWYRQAPGKERELVAAINKSGTRTYYADSVKGRFTISRDNAKNTVYLQMNSLKPEDTAVYYCAADQGTYGYGGFYYWGQGTQVTVSS	high polyreactivity
QVQLVESGGGLVQAGGSLRLSCAASGSTSRYYDMGWYRQAPGKERELVAAITWSGGTTYYADSVKGRFTISRDNAKNTVYLQMDSLKPEDTAVYYCAVDSQTANDYDYWGQGTQVTVSS	low polyreactivity
QVQLVESGGGLVQAGGSLRLSCAASGSTSSTYAKGWYRQAPGKERELVATINWDGASTYYADSVKGRFTISRDNATNTVYLQMNSLKPEDTAVYYCAAQSGAVHFLEDDYWGQGTQVTVSS	low polyreactivity
QVQLVESGGGLVQAGGSLRLSCAASGSTSTRYAMGWYRPAPGKERELVAAISKSGGRTYYADSVKGRFTMSRDNAKNTVYLQMNSLKPEDTAVYYCNTVPGRYRTFDYWGQGTQVTVSS	high polyreactivity
QVQLVESGGGLVQAGGSLRLSCAASGSTSTSNAMGWYRQAPGKERELVAVISSGGSTYYADSVKGRFTISRDNAKNTVYLQMNSLKPEDTAVYYCSADARIHWFVVRYEYWGQGTQVTVSS	low polyreactivity
QVQLVESGGGLVQAGGSLRLSCAASGSTSTYYAMGWYRQAPGKERELVAAITLGAGRKYADSVKGRFTISRDNAKNTVYLQMNSLKPEDTAVYYCAADSHIDHGKWAYDYWGQGTQVTVSS	low polyreactivity
QVQLVESGGGLVQAGGSLRLSCAASGSTSWSNARGWYRQAPGKERELLAAITTGASTYYADSVKGRFTMSRDNAKNTVYYQMNSLKPEDTAVYYCAADPWVLWSYYYWGQGTQVTVSS	low polyreactivity
QVQLVESGGGLVQAGGSLRLSCAASGSTSWYDMGWYRQPPGKERELVASISSGDSTNYADSVKGRFTISRDNAKNTVYLQMNSLKPDDTAVYYCAADFNVGFVWGDDSDYWGQGTQVTVSS	low polyreactivity
QVQLVESGGGLVQAGGSLRLSCAASGSTSYDNAMGWYRQAPGKERELVASISSDGSTNYADSVKGRFTISRDNAKNTVYLQMNSLKPEDTAVYYCNVEVTRGLSHDPEYDYWGQGTQVTVSS	low polyreactivity

Sequence	polyreactivity (PSR sort gate)
QVQLVESGGGLVQAGGSLRLSCAASGSTSYGYAMGWYRQAPGKERELVAAISYSGSSTYYADSVKGRFTISRDNAKNTVYLQMNSLKPEDTAVYYCNAKVYPGVGPKHRYDYWGQGTQVTVSS	low polyreactivity
QVQLVESGGGLVQAGGSLRLSCAASGSTSYLYAMGWYRQAPGKERELVATITTRSGSTYYADSVKGRFTISRDNAKNTVYLQINSLKPEDTAVYYCAARWISVLSEGAEHDYWGQGTQVTVSS	low polyreactivity
QVQLVESGGGLVQAGGSLRLSCAASGSTSYVYAMGWYRQAPGKERELVAANSGSGGRTYYADSVKGRFTISRDNAKNTVYLQMNSLKPEDTAVYYCNALTRPSYPFDYWGLGTQVTVSS	high polyreactivity
QVQLVESGGGLVQAGGSLRLSCAASGSTVENNVMGWYRQAPGQERELVATITWGDGSTSYADSVKGRFTISRDNAKNTVYLKMNSLKTEVTAVYYCDAVDRIGYGKNQDHDYWGQGTQVTVSS	low polyreactivity
QVQLVESGGGLVQAGGSLRLSCAASGSTVGAYAMGWYRQAPGKERELVAAISYSGGSTYYADSVKGRFTISRDNAKNSVYLQMNSLKPEDSAVYYCAAGTKYTSAVHFFYWGQGTQVTVSS	high polyreactivity
QVQLVESGGGLVQAGGSLRLSCAASGSTVINYAMGWYRHAPGKERELVATLTSDGRTYYADSVKGRCTISRDNAKNTVYLQMISLKPEDTAVYSCAKSYGGVTEYDYWGQGTQVTVSS	low polyreactivity
QVQLVESGGGLVQAGGSLRLSCAASGSTVKRNAMGWYRQAPGKERELVAAITQSGGSTYYADSVKGRFTISRHNAKNTVYLQMNSLKPEDTAVYYCAASDFRGRRYDYWGQGTQVTVSS	high polyreactivity
QVQLVESGGGLVQAGGSLRLSCAASGSTVRRYAMGWYRQAPGKERELVAAISWSGGSTYYADSVKGRFTISRDNAKNTGYLQMNSLKPEDTAVYYCAARGVTSYWQDYDYWGQGTQLTVSS	low polyreactivity
QVQLVESGGGLVQAGGSLRLSCAASGSTVSNYAMGWYRQAPGKERELVASISNGGSTNDADSVKGRFTISRANAKNTGYLQMNSLKPEDTAVYYCNAESKAKYDYWGQGTQVTLSS	low polyreactivity
QVQLVESGGGLVQAGGSLRLSCAASGSTVVIKAMGWYRQAPGKERELVARISSSGGRTYYADSVKGRFTISRDNAKNTVYLQMNSLKPEDTAVYYCAKRGYLFLRGSVRVGYNYWGQGTQVTVSS	low polyreactivity
QVQLVESGGGLVQAGGSLRLSCAASGSTVYHYAMGWNRQAPGKERELVAAISFSGGRTSYADSVKGRFTISRDNAKNTVDLQMNSLKPEDTAGYYCAAKYIRFARSRDYWGHGTQVTVSS	high polyreactivity
QVQLVESGGGLVQAGGSLRLSCAASGSTYALNAMGWYRQAPGKDRDLVDAISRRGGSTYYADSVKGRFTISRDNAKNTVYLQMNSLKPEDTAVYYCAARNQSQRTGYDFWGQGTQVTVSS	high polyreactivity
QVQLVESGGGLVQAGGSLRLSCAASGSTYAYYAMGWYRQATGKERELVAAISLSSGCTYYADSVKGRFTISRDKAKNTVYLQMNSLKPEDTAVYYCAADFASDSSRYEYWGQGTQVTVSS	low polyreactivity
QVQLVESGGGLVQAGGSLRLSCAASGSTYHKDAMAWYRQAPGKERELVAAISNGGRTYYADSVKGRFTISRDNAKNTVYLKRNSLKPEATAVYYCAAVPRRGWDIRRYDSWGQGTQVTVSS	high polyreactivity
QVQLVESGGGLVQAGGSLRLSCAASGSTYLINAMGWYRQAPGNERELVAAISDSGGSTHYADSVKGRFTISRDHAINTVYLHMKSLNPEDTAVYYCAATIPTTLILYGYWGQGTQVTVSS	low polyreactivity
QVQLVESGGGLVQAGGSLRLSCAASGSTYNINAMGWYRQAPGKERELVAAISWSGGSTYYADSVKGRFTISRDNAKNTVYLQMNSLKPEDTAVYYCNALWVWYRGSSVRWVGGYDYWGQGTQVTVSS	high polyreactivity
QVQLVESGGGLVQAGGSLRLSCAASGSTYPYAMGWYRQAPGKERELVAAIRWRGGSTKYADSVKGRFTISRDNAKNTVYLQMNSLKPEDTAVYYCARRWYYVLHGYWGQGTQVTVSS	high polyreactivity
QVQLVESGGGLVQAGGSLRLSCAASGSTYPYYAMGWYRQAPGKERELVAAITSGGSTNYADSVKGRFTISRDNAKNTVYLQMNSLKPEDTAVYYCNADSSGWFPFDYWGQGTQVTVSS	low polyreactivity
QVQLVESGGGLVQAGGSLRLSCAASGSTYRTYAMGWYRPAPGKERELVAAISSSGGSTYYADSVKGRFTISRDNAKNTVYLQMNSLKPEYTAVYYCNAGRSHRPHYDYWGQGTQVTVSS	high polyreactivity
QVQLVESGGGLVQAGGSLRLSCAASGSTYRYTMGWYRQAPGKERELVAAITGSAGRTYYADSVKGRFTISRDNAKNTVYLQMNSLKPEDTAVYYCNKVRPRKFWDYYYWGQGTQVTVSS	high polyreactivity
QVQLVESGGGLVQAGGSLRLSCAASGSTYRYYAMGWYRQAPGKERELVAGISWSGTSTYYADSVKGRFTISRDNANNTVYLQMNSLKPEDTAVYYSNVVWWSRYGTTYKYDYWGQGTQVTVSS	high polyreactivity
